We go through two molecules from patent US20180312587A1 (ADURO BIOTECH HOLDINGS EUROPE B V, published 2018).

For experiment [1], the target named is T1, hSIRP-VβC1γC2β (human, UniProt O00241 30-398).
T1 chain: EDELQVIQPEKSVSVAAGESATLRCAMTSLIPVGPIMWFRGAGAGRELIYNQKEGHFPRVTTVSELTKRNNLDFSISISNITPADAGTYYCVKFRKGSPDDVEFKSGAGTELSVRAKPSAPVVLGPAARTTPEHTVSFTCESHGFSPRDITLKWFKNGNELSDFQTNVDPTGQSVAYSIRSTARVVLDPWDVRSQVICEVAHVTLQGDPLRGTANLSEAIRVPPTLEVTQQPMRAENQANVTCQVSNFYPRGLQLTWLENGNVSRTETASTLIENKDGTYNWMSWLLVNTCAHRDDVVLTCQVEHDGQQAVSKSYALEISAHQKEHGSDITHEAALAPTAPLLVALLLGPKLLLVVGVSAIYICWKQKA
Nature of the experiment: CELISA, CHO-K1 transfectants, domain exchange study; nd = not detected. From the text:
(§1) Based on the fold of SIRPα/β1/γ, the extracellular region can be subdivided into three separate domains: the Ig-like (immunoglobulin-like) V-type (IgV), Ig-like C1-type (IgC1), and Ig-like C2-type (IgC2) domain. The IgV domain is also known as the ligand-binding N-terminal domain of SIRPα and SIRPγ (which binds to CD47). The human SIRPβ1/γ mutants were designed based on the full length hSIRPβ1 sequence (SEQ ID NO: 38) and each individual Ig-like domain was substituted for the equivalent domain of human SIRPγ (SEQ ID NO: 40). […] Binding of hSIRPα.40A to the exchange mutants was tested using CELISA. To this end, CHO-K1 cells were transiently transfected, using Lipofectamine 2000, with the pCI-neo vectors encoding hSIRPαV1, hSIRPαV2, hSIRPβ1, hSIRP-VγC1βC2β, hSIRP-VβC1γC2β, and hSIRP-VβC1βC2γ, respectively. The transfected cells were cultured at 37° C., 5% CO₂ and 95% humidity in medium (DMEM-F12 (Gibco) with 5% New Born Calf serum (Biowest) and Pen/Strep (Gibco)) until confluent. Subsequently, cells were trypsinized and seeded in 96-well flat-bottom tissue culture plates and cultured at 37° C., 5% CO₂ and 95% humidity in culture medium until confluent. […] Reactions were stopped with 0.5 M H₂SO₄ and absorbances were read at 450 and 610 nm.

In experiment [2] the target is T2, hSIRP-VβC1βC2γ (human, UniProt O00241 30-398).
T2 chain: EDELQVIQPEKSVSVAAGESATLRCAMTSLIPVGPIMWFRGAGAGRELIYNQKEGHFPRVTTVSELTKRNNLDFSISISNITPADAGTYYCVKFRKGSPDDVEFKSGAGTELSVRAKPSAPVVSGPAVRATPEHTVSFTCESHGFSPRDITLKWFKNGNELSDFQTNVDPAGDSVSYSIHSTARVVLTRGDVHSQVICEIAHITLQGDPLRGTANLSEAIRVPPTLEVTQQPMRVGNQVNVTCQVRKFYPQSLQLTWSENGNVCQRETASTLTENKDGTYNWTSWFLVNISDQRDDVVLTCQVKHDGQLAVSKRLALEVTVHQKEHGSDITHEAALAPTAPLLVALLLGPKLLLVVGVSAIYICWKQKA
The description is as above.
Excerpt: as §1

Experiment [3] addresses T3, hSIRPαV1(P74A) (human, UniProt P78324 31-504).
T3 construct: also called P74A variant of hSIRPαV1
Nature of the experiment: CELISA, CHO-K1 transfectants. The gist of the method: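 Cell ELISA on CHO-K1 cells transfected with full-length hSIRPαV1, hSIRPαV1(P74A), hSIRPαV2 or hSIRPβ1 and seeded for 24 h. Cells were incubated 1 h at 37 °C with purified antibodies at 10 μg/mL and dilutions thereof, then with anti-mouse IgG-HRP. Read-out was TMB absorbance at 450 and 610 nm.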

B1: hSIRPα.50A (antibody, V domains shown)
VH: QVQLQQSGPELVKPGASVRISCKASGFTFTNYYIHWVKQRPGQGLEWIGWIYPGNVNTKYNEKFKAKATLTADKSSTTAYMQLSSLASEDSAVYFCARPTIIATDFDVWGAGTTVTVSS
VL: DIVMTQSHKFMSTSVGDRVNITCKASQGVGTAVGWYQQKPGQSPRLLIYWASTRHTGVPDRFTGSGSGTDFSLAISNVQSEDLADYFCQQYSTYPFTFGGGTNLEIK
notes: light chain constant domain not tied; also called mouse hSIRPα.50A; hSIRPα.50A.mIgG1
In the case of B1, the binding result in experiment [1] and in experiment [2] was “no binding” throughout.

B2: KWAR23 (antibody, V domains shown)
VH: EVQLQQSGAELVKPGASVKLSCTASGFNIKDYYIHWVQQRTEQGLEWIGRIDPEDGETKYAPKFQDKATITADTSSNTAYLHLSSLTSEDTAVYYCARWGAYWGQGTLVTVSS
VL: QIVLTQSPAIMSASPGEKVTLTCSASSSVSSSYLYWYQQKPGSSPKLWIYSTSNLASGVPARFSGSGSGTSYSLTISSMEAEDAASYFCHQWSSYPRTFGAGTKLELK
By EC50 is commonly meant the concentration giving half of the maximal effect. A low value points to higher potency in that assay. B2: the EC50 in experiment [3] stood at 0.049 nM. In other words, the picomolar range.
